Measurements reported in the nanobody polyreactivity screen of Harvey et al. (2022).

Assay: yeast display, Sf9 membrane polyspecificity reagent, FACS + sequencing; frameworks hold sequencing errors
Outline: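 Sorting gates, low and high (top ~1%), were placed on anti-HA fluorescence to track expression and on streptavidin fluorescence to track reagent binding. A clone's polyreactivity label is taken from the gate it came out of. The reagent was 10% biotinylated, detergent-solubilized Sf9 membrane, applied for 1 hour at 4 °C to galactose-induced yeast display cells.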

Sequence | polyreactivity (PSR sort gate)
QVQLVESAGGLVQAGGSLRLSCAASGSTFYAYVMGWYRPAPGKARELVAAISKGGGSTYYADSVKGRFTISRDNAKNTVYLQMNSLKPEDTAVYYCAAYASYSNYRKYNYWGQGTQVTVSS | high polyreactivity
QVQLVESAGGLVQAGGSLRLSCAASGSTIYPNAMGWYRQAPGKERELVAVISSGGSTYYADSVKGRFTISRDNAKNTVYLQMNSLKPEDTAVYYCADERYYFPRSYRYGYWGQGTQVTVSS | low polyreactivity
QVQLVESAGGLVQAGGSLRLSCAASGSTLYPYDMGWYRQAPGKERELVAAIDSGGSTNYADSVKGRFTISRDNAKNTVYLQMNSLKPEDTAVYYCAADASGENDYWGQGTQVTVSS | low polyreactivity
QVQLVESAGGLVQAGGSLRLSCAASGTILWWNAMGRYRPAPGKERELVADITSDGTYADSVKGRFTISRDNAKNTVYLQMNSLKPEDTAVYYCAAVDAYGPGLNGYDYWGQGTQVTVSS | low polyreactivity
QVQLVESAGGLVQAGGSLRLSCAASRRTFARYAIGRYRQAPGQERELVAALSRSGTCTYYADSVLGRFTISRDNAKNTVYLQKNSLKPEDCAVYYCAVDAYLGHYDYWGQGTQVTVSS | high polyreactivity
QVQLVESAGGLVQAGGSLRLSCAASVSTLEYNAMGWYRQAPGNERELVAAITASGGSTYYADSVKGRFTISRDNAKKTVYLQMNSLKPDDTAVYYCATEANQRTLKDTVKDYDYWGQGTQVTVSS | low polyreactivity
QVQLVESAGGLVQAGGSLRLSCDASGYTFNYNTMGCYRQARGKERELVSAINTSGSTDYADSVKGRFTISRDNAKNTDYLLMNRLKPEDTAVYYCAVRVAYKYNYWGQGTQETVSS | high polyreactivity
QVQLVESAGGLVQAGGSLRLTCAASGNIFRRYAMGWYRQAPGKERELVAAISWRSGNTYYADSVKGRFTISRDNAKNTVYLQMNSLKPEDTAVYYCNKDYWWIPQLPHYNYWGQGTQVTVSS | low polyreactivity
QVQLVESAGGLVQAGGSLRVICAASASTSVHNAMGWYRQAPGKERELVAAITSDGSTNYADSVKGRFTISRDNEKNTVYLLMYSLEPEDTAFYYCAALGWTYYVGYVSYSYGYWGQGTQVTVSS | low polyreactivity
QVQLVESAGGLVQAGGSLSLSCAASGFNFKGYAMGSYRQAPGKERELVAAISSSGTSTYYADSVKGRFTISRDNEKNTVYLQMNSLKPEDTAVYYCARVSKRTWSGYYYWGQGTQVTVSS | high polyreactivity
QVQLVESAGGLVQAGGSLSLSCAASGITFIPNPMGWYRQAPGKERELVAAISISGGRTYYADSVKGRFTISRDNAKNTVYLQMNSLKPEDTAVYYCAADRADFFVIRTIDPYDYWGQGTQVTVSS | low polyreactivity
QVQLVESAGGLVQAGGSLSLSCAASGLTFHYYHMGWYRQATGKETELVAAITSSGGRTYYADSVKGRFTISRDNEKNTVFLQMNSLKPEDTAVYFCAADIYPDWIYLLYGYWGQGTQVTVSS | low polyreactivity
QVQLVESAGGLVQAGGSLSLSCAASGRTFSYYAMGWYRHARGKERELVAAISRRGGSTYYADSVKGRLTISRDNAKNTVYLQMISLKPEDTAVDYCNARGRSTVGGGFYYWGLGTQVTVSS | high polyreactivity
QVQLVESAGGLVQAGGSLSLSCAASGSTFYKYTMGWDRQAPGKERELVAAISGSGTTTYYADSVKGRFTISRDNAKNTVYLQMNSLKPEDTAVYYCAAHSRSSSGYHWGQGTQVTVSS | high polyreactivity
QVQLVESAGGLVQAVGSLRLSCDASGSTFSGNDMGWYRQAPGKERELVAAITSSGGSTYYADSVKGRFTISRDNAKNTVYLQMNSLKPEDTAVYYCAAKSRRTRRSYYWGQGTQVTVSS | high polyreactivity
QVQLVESAGGLVQEGGSLRVSCAASGRTFGRYAMGRYRQAPGKEREMVAAITVGGGSTYYADSVKGRFTISRDTAKNTVYLQMNSLKPEDTAVYYCNALHTYTYRYDYYYWGQGTQVTVSS | high polyreactivity
QVQLVESAGRLVQAGGSLRLSCAASGFTFRKNAMGWYRQAPGKERELVAAITFSGGSTYYADSVKGRFTISRDNAKNTVYLQMNSLKPEDTAVYFCGTRYYYHYPRKHIYNYWGQGTQVTVSS | high polyreactivity
QVQLVESAGRLVQAGGSLRLSCSASGSIFDWYAMGWYRQEPGKERELVAAISWSGGSTYYADSVKGRFTISRDNAKNTVYLQMNSLKPEDSAVYYCYAVFLYFNDDKFDNWGQGTQVTVSS | low polyreactivity
QVQLVESAGVLVQAGGRLRLICAACGSIFDYYSLGWYRQAPGKEREMVDTISGGGGTTYYADSVKGRFTISRDNAKNSVYVHMNSLKPEDTAVYYCAADSLGYKYWGQGTQVTVSS | low polyreactivity
QVQLVESAVGLVQAGGSLRLSCAASGGIIAYNAMGWYRQAPGKERELVAAISSSGGRTYYADSVKGRFTISRDNAKNTVYLQMNSLKPEDTAVYYCAADITFRYYYWGQGTQVTVSS | high polyreactivity
QVQLVESCGCLVQAGGSLRLSCAAYGITFGRNTMVWDRQAPGKERELVAAIDSGGNTYAVSVKGRFTISRDNAKNTVYLQMISLKPEDTAVYYCAVDGGEFSSYGYWGQGTQVTVSS | low polyreactivity
QVQLVESCGGIVQAGVSLRLSCAASGSIFGIYAMGWYRQAPGKERELVAAIDSSGTSTYYADSVKGRFTISRDNEKNTVYLQMNSLKPEDTAVNSSAAYHRISKNNYWGQGTEVTVSS | low polyreactivity

Sequence | polyreactivity (PSR sort gate)
QVQLVESCGGLDQAGGSLRLSCAASGSMFGYAMGWYRQAPGKERELVASTTYADSVKGRFTISRDNAKNTVYLQMNSLKPEDTAVYDCAADDWYTVEMEYWGQGTLVTVSS | low polyreactivity
QVQLVESCGGLVHAGCSLRLSCAASGSTFTFYAMGWYRQAPGKERVLVATISWSTGTTYYADSVKGRFTISRDSAKNTVYLEMNSMKPEDTAVYYCADAWSYRFDYWGQGTQVTVSS | low polyreactivity
QVQLVESCGGLVHAGGSLRLSCAASGRSFYRYAMGWYRKAPGKERELVAAISSGGSTYYADSVKGRFTISRDNANNTDYLQMNSLKPEDTAVYYCNADYGRRIHMDYWGQGTQVTVSS | low polyreactivity
QVQLVESCGGLVQAGASLRLSCAASGSTFKYYTMGWYIQSPGKERELVAAISFSGARTYYADSVKGRFTISRDNAKNNVYLQMNSLKPEDTAVYYCAKRATWYTVPREGYWGQGTLVTVSS | high polyreactivity
QVQLVESCGGLVQAGGSLRLICAASGRTFRSYTMGWYRQAPGKERELVAAISYNCGSTYYADSVKGRFTISRDNAKNTVYLQMNSLKPEDTPVYYCAVYTIYGFYYWGQGTQVSVSS | high polyreactivity
QVQLVESCGGLVQAGGSLRLICDDSGNTFNRYAMGWYRQAPGKERELVADITSGGRTYYAYSVKGRFTISRDNAKNTVYLQMNSVKPVDTAVYYCAGEWWDLGNFYWSYRYDYWGQCTQVTVSS | high polyreactivity
QVQLVESCGGLVQAGGSLRLRCAASRSIFDSYAMGWYRQAPGKERELVASISYRGGSTYYADSVKGRFTISRDIAKNTVYLQMNSLKPEDTAVYYCAATPGYHYRSWRYYYWGQGNQVTVSS | high polyreactivity
QVQLVESCGGLVQAGGSLRLSCAASGFTFYYYVMGWYRQAPGQERELVAAISRSGGNTYYADSVKGRFTISRDNAKNTVYLQMNRLKPEDTAVYYCNAVQYYPVYYWGQGTQVTVSS | high polyreactivity
QVQLVESCGGLVQAGGSLRLSCAASGITFGSYAMGWYRQAPGKERELVAAITTGTSTNYADSVKGRFTISRDNAKNTVYLQMNSLKPEDTAVYYCNAEKYNFIYAYEYWGQGTQVTVSS | low polyreactivity
QVQLVESCGGLVQAGGSLRLSCAASGLIIRWYAMGWYRQAPGKERELVAAITRAGSTYYADSVKWRFTISRDNAKNTVYLQMNSLNPEDTAVYYCAADTNWSPGYIMYYRSDYWGQGTQVTVSS | low polyreactivity
QVQLVESCGGLVQAGGSLRLSCAASGLTLGDNAMGLYRQAPGKERELVAAITSGSSTDYADSVKGRFTISRDNAKNTVYLQMNSLKPEDTAVYYCAKRIYRYQYRPENYWGQGTQVTVSS | low polyreactivity
QVQLVESCGGLVQAGGSLRLSCAASGRIFLVYAMGWYRQAPGKERELVAAISWSTGSTYYADSVKGRFTISRDNAKNTVYLQMNSLKPEDTAVYYCAAEPELDEFEHDYWGQGTQVTVSS | low polyreactivity
QVQLVESCGGLVQAGGSLRLSCAASGRIIRKYDMGWYRQAPGKERELVAAISGTGITYYADSVKGRFTISRDNAKNTVYLQMNSLKPEDTAVYYCARGSKPRAWSWAYPSATSIYDYLGQGTQVTVSS | low polyreactivity
QVQLVESCGGLVQAGGSLRLSCAASGRTFNSYAIGWYRNAPGKERELVAAISWIGGSTYYADSVKGRFTISRDNAKNTVYLQMNSLKPEDTAVYYCAADSYRFYSGYYYWGQGTQVTVSS | low polyreactivity
QVQLVESCGGLVQAGGSLRLSCAASGSIFGDYVMGWYRQAPGKERELVAAINRGGSTYYADSVKGRFTISRDNAKNTVYLQMNSLKPEDTAVYYCAAGYPSWYYGYPYDSWGQGTQVTVSS | low polyreactivity
QVQLVESCGGLVQAGGSLRLSCAASGSIFSGYAMGWYRQAPWKERELVAAITWRAASTYYADSVTGRFTISRDNAMNTVYLQMNSLKPEDTAVYYCAKEGWPKPAFYYCGQGTQVTVSS | low polyreactivity
QVQLVESCGGLVQAGGSLRLSCAASGSIFSRNTMGWYRQAPCKERELVAGISSSGSRTYYADSVKGRFTISRDNSKNTVYLQMNSLKPEYTAVYYCAAEHQRSRGRRYYIGYDYWGQGTQVTVSS | low polyreactivity
QVQLVESCGGLVQAGGSLRLSCAASGSTFSLYGMGWYRQAPAKERELVATITYSGGRTYYADSVKGRFTISLDNAKNTVYLQLNSLKPEDTAVYYCAARLAPLYRTYYYWGQGTQVTVSS | low polyreactivity
QVQLVESCGGLVQAGGSLRLSCAASGSTFVYNSMGWYRQAPGKEREMVDAITWRGSTYYADSVKGRFTISRDNAKNTVYLQMNSLKPEDTAVYYCAARFSNLPEGVTYYYWGQGTQVTVSS | high polyreactivity
QVQLVESCGGLVQAGGSLRLSCAASGYTFSFNAMGWYRQAPGKESELVADINLSGGYTYYADSVKGRFTISRDNAKNTVYLQINSLKPEDTAVYYCAADLYDYWTEGYAFLFEYWGQGTQVTVSS | low polyreactivity
QVQLVESCGGLVQARGSLRLSCAACGRIFIRYALGWYSQAPGTERELVAAITRGGSTYYADSVKGRFTISRDNAKITVFLQMNSVKPEDTAVYYCAGRVGYPYYYWGQGTEVTVSS | high polyreactivity
